Values of other authors as cited in patent US20210244796A1, “COMPOSITIONS IN THE FORM OF AN INJECTABLE AQUEOUS SOLUTION COMPRISING AMYLIN AN AMYLIN RECEPTOR AGONIST OR AN AMYLIN ANALOG, AT LEAST ONE IONIC SPECIES AND AN AMPHOIPHILIC COMPOUNDS CONTAINING HYDRIPHOBIC RADICALS” (ADOCIA, priority 2018, published 2021).
Like-named read-outs stand apart in the source and are kept apart here.

CC[C@H](C)[C@H](NC(=O)[C@@H]1CCCN1C(=O)CNC(=O)[C@H](Cc1ccccc1)NC(=O)[C@H](CC(N)=O)NC(=O)[C@H](CC(N)=O)NC(=O)[C@H](CO)NC(=O)[C@H](CO)NC(=O)[C@H](Cc1c[nH]cn1)NC(=O)[C@@H](NC(=O)[C@H](CC(C)C)NC(=O)[C@H](Cc1ccccc1)NC(=O)[C@H](CC(N)=O)NC(=O)[C@H](C)NC(=O)[C@H](CC(C)C)NC(=O)[C@H](CCCNC(=N)N)NC(=O)[C@H](CCC(N)=O)NC(=O)[C@@H](NC(=O)[C@H](C)NC(=O)[C@@H]1CSSC[C@H](NC(=O)[C@@H](N)CCCCN)C(=O)N[C@@H](CC(N)=O)C(=O)N[C@@H]([C@@H](C)O)C(=O)N[C@@H](C)C(=O)N[C@@H]([C@@H](C)O)C(=O)N1)[C@@H](C)O)C(C)C)C(=O)N[C@@H](CC(C)C)C(=O)N1CCC[C@H]1C(=O)N1CCC[C@H]1C(=O)N[C@H](C(=O)N[C@@H](CC(N)=O)C(=O)N[C@H](C(=O)NCC(=O)N[C@@H](CO)C(=O)N[C@@H](CC(N)=O)C(=O)N[C@H](C(=O)N[C@@H](Cc1ccc(O)cc1)C(N)=O)[C@@H](C)O)C(C)C)[C@@H](C)O [pramlintide, reference compound]
pH of the solution above which the peptide is described as shining (pramlintide formulated at acidic pH): greater than 5.5

Amylin: 37 amino acid peptide co-stored and co-secreted with insulin (KCNTATCATQRLANFLVHSSNNFGAILSSTNVGSNTY; Islet amyloid polypeptide; UniProt P10997 34-70, looked up)
Time for which amylin is stable (acidic pH): about fifteen
Time for which amylin is stable (neutral pH): less than one
